Test results: the supplement of paper PMC9876800

Test system: peptide library, one residue held at a place counted from the S/T acceptor
Assay: relative phosphorylation of the sub-library (ratio to the mean residue at this position); higher = residue favoured
Conditions: human
Method in brief: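 Spots on streptavidin membranes were phosphorimaged and quantified by densitometry to measure phosphorylation of biotinylated degenerate peptide sub-libraries by purified recombinant kinases, human or orthologue constructs. The reactions ran in 384-well plates for 90 min under kinase-specific conditions, with peptides at 50 μM and 50 μM ATP spiked with γ-32P-ATP. Relative sub-library phosphorylation is the ratio to the mean residue at that position.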

Chain of CDC7, construct: Full length (O00311 whole entry, looked up): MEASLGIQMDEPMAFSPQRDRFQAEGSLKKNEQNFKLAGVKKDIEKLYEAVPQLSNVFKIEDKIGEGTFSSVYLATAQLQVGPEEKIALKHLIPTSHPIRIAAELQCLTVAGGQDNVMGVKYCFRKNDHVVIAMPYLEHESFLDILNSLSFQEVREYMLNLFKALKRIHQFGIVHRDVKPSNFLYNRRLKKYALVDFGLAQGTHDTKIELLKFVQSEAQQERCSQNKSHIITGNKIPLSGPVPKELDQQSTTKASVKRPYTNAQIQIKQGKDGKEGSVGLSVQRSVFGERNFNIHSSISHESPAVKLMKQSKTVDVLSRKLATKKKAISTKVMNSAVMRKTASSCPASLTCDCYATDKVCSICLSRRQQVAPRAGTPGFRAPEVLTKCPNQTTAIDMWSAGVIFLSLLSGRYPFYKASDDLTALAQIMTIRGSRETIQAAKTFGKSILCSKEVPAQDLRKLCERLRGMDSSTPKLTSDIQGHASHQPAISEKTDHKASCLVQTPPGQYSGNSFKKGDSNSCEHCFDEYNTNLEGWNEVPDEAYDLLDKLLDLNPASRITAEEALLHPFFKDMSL
Chain of AAK1, construct: aa27-365 (Q2M2I8 27-365, looked up): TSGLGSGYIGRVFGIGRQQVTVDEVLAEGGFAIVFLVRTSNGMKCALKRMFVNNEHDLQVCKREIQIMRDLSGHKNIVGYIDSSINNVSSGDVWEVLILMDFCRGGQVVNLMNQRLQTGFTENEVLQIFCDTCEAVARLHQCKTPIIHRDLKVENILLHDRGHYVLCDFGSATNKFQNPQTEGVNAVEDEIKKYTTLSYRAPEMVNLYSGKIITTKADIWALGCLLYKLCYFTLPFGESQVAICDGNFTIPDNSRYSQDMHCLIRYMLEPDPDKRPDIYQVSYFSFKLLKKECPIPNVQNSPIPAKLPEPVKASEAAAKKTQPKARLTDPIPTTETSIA

CDC7, construct: Full length (from UniProt O00311)
relative phosphorylation
Conditions | at +1 | at +2 | at +3 | at +4 | at -1 | at -2 | at -3 | at -4 | at -5
A fixed | 0.668 | 1.31 | 0.87 | 0.939 | 1.13 | 1.05 | 0.87 | 0.99 | 1.26
D fixed | 2.92 | 0.854 | 2.1 | 0.91 | 0.674 | 1.19 | 1.06 | 1.27 | 0.99
E fixed | 4.74 | 0.689 | 1.03 | 0.832 | 0.819 | 1.13 | 1.15 | 1.04 | 0.856
F fixed | 0.577 | 0.712 | 1.35 | 1.04 | 1.04 | 0.895 | 0.91 | 0.949 | 0.988
G fixed | 0.629 | 1.69 | 1.37 | 1.02 | 1.11 | 0.778 | 1 | 0.929 | 0.934
H fixed | 0.513 | 0.887 | 1.02 | 1.08 | 1 | 0.787 | 0.836 | 0.977 | 1.09
I fixed | 0.549 | 0.834 | 0.864 | 1.01 | 0.485 | 1.07 | 0.849 | 0.82 | 0.93
K fixed | 0.444 | 0.596 | 0.561 | 0.769 | 1.31 | 0.72 | 0.802 | 0.909 | 0.954
L fixed | 0.563 | 1.02 | 0.874 | 0.984 | 0.982 | 1.4 | 0.933 | 0.943 | 0.926
M fixed | 0.765 | 0.893 | 0.676 | 0.932 | 1.18 | 1.11 | 0.894 | 0.921 | 0.95
N fixed | 0.691 | 1.13 | 0.897 | 0.878 | 0.884 | 0.715 | 0.888 | 0.955 | 0.979
P fixed | 0.459 | 1.84 | 0.945 | 1.15 | 1.01 | 1.64 | 1.06 | 1.11 | 0.914
Q fixed | 1.31 | 0.756 | 0.694 | 0.782 | 0.781 | 0.749 | 0.848 | 0.866 | 0.77
R fixed | 0.472 | 0.816 | 0.506 | 0.723 | 1.11 | 1.06 | 1.65 | 0.907 | 1.06
V fixed | 0.612 | 0.737 | 0.761 | 0.894 | 0.671 | 0.988 | 0.856 | 0.935 | 0.943
W fixed | 0.567 | 1.44 | 1.23 | 1.48 | 1.59 | 0.854 | 1.33 | 1.36 | 1.28
Y fixed | 0.523 | 0.796 | 1.25 | 1.58 | 1.23 | 0.884 | 1.06 | 1.12 | 1.18
pThr fixed | 2.38 | 0.801 | 1.41 | 1.34 | 0.583 | 1.12 | 1.46 | 1.13 | 0.831
pTyr fixed | 0.631 | 0.537 | 0.792 | 1.15 | 0.684 | 0.717 | 1.06 | 0.937 | 0.844

AAK1, construct: aa27-365 (from UniProt Q2M2I8)
relative phosphorylation
Conditions | at +1 | at +2 | at +3 | at +4 | at -1 | at -2 | at -3 | at -4 | at -5
A fixed | 0.53 | 1.27 | 0.989 | 1.1 | 0.654 | 0.915 | 1.9 | 1.2 | 0.482
D fixed | 0.174 | 0.939 | 0.688 | 0.662 | 0.274 | 1.37 | 0.462 | 0.565 | 0.273
E fixed | 0.167 | 0.89 | 0.631 | 0.778 | 0.248 | 1.08 | 0.629 | 0.951 | 0.26
F fixed | 0.219 | 0.826 | 0.731 | 0.89 | 0.926 | 0.571 | 0.828 | 0.883 | 0.722
G fixed | 12.3 | 1.27 | 1.57 | 1.19 | 1.2 | 0.48 | 0.87 | 1.09 | 0.416
H fixed | 0.272 | 1.05 | 1.15 | 0.951 | 1.17 | 0.963 | 0.676 | 0.874 | 0.564
I fixed | 0.173 | 0.629 | 0.659 | 0.706 | 0.739 | 0.642 | 1.02 | 1.06 | 2.64
K fixed | 0.33 | 0.98 | 1.26 | 1.41 | 2.09 | 0.998 | 0.879 | 1.38 | 0.445
L fixed | 0.222 | 0.703 | 0.831 | 0.783 | 1.11 | 0.968 | 0.896 | 1.26 | 1.69
M fixed | 0.21 | 0.817 | 0.743 | 0.789 | 0.941 | 1.98 | 1.33 | 1.18 | 1.47
N fixed | 0.289 | 1.42 | 1.25 | 1.01 | 0.737 | 1.37 | 0.989 | 0.73 | 0.468
P fixed | 0.787 | 0.896 | 1.16 | 1.07 | 1.93 | 0.385 | 1.84 | 0.908 | 1.22
Q fixed | 0.235 | 1.31 | 1.06 | 1.08 | 0.675 | 2.58 | 1.18 | 1.07 | 0.952
R fixed | 0.423 | 1.32 | 1.53 | 1.58 | 1.57 | 0.943 | 0.987 | 1.22 | 1.62
V fixed | 0.182 | 0.922 | 1.04 | 0.718 | 0.666 | 0.578 | 1.09 | 1.05 | 1.62
W fixed | 0.276 | 0.973 | 0.817 | 1.4 | 0.748 | 0.492 | 0.722 | 0.686 | 0.535
Y fixed | 0.243 | 0.78 | 0.905 | 0.886 | 1.32 | 0.678 | 0.699 | 0.908 | 1.62
pThr fixed | 0.209 | 0.696 | 0.57 | 0.427 | 0.206 | 0.356 | 0.514 | 0.564 | 0.342
pTyr fixed | 0.171 | 0.697 | 0.61 | 0.46 | 0.303 | 0.826 | 0.466 | 0.576 | 1.04
